# Results taken from paper PMC3538539, “Self-Interaction of Human Pex11pβ during Peroxisomal Growth and Division” (PLoS ONE, 2013).
# Assays:
# [1] = biological target: the molecule itself; experiment: cross-linking; COS-7 cells fixed with 4% para-formaldehyde 24 h after transfection, postfixation extraction with 0.2% Triton X-100 (or digitonin); extracts, pellets and unfixed lysates on SDS-PAGE, anti-Myc immunoblot
# [2] = biological target: the molecule itself; experiment: cross-linking; data not shown: para-formaldehyde fixation, postfixation Triton X-100 extraction, immunoblot
Protein,stoichiometry N [1],stoichiometry N [2]
"HsPex11pβ-Myc (natural protein, human, UniProt O96011 1-259, looked up, human Pex11pβ (HsPex11pβ), peroxisomal membrane protein 11B; also called Pex11pβ-Myc (WT); wild type Pex11pβ-Myc; source: COS-7, transfected; cross-linked in cells, then in detergent extract or lysate; not shown: Myc, C-terminal, kept) MDAWVRFSAQSQARERLCRAAQYACSLLGHALQRHGASPELQKQIRQLESHLSLGRKLLRLGNSADALESAKRAVHLSDVVLRFCITVSHLNRALYFACDNVLWAGKSGLAPRVDQEKWAQRSFRYYLFSLIMNLSRDAYEIRLLMEQESSACSRRLKGSGGGVPGGSETGGLGGPGTPGGGLPQLALKLRLQVLLLARVLRGHPPLLLDVVRNACDLFIPLDKLGLWRCGPGIVGLCGLVSSILSILTLIYPWLRLKP",2,–
"Pex11pβ-Myc^C18S-C25S-C85S (natural protein, human, UniProt O96011 1-259, looked up, human Pex11pβ with the three N-terminal cysteines replaced by serine; also called triple mutant; source: COS-7, transfected; cross-linked in cells, then in Triton X-100 extract; not shown: Myc, C-terminal, kept) MDAWVRFSAQSQARERLSRAAQYASSLLGHALQRHGASPELQKQIRQLESHLSLGRKLLRLGNSADALESAKRAVHLSDVVLRFSITVSHLNRALYFACDNVLWAGKSGLAPRVDQEKWAQRSFRYYLFSLIMNLSRDAYEIRLLMEQESSACSRRLKGSGGGVPGGSETGGLGGPGTPGGGLPQLALKLRLQVLLLARVLRGHPPLLLDVVRNACDLFIPLDKLGLWRCGPGIVGLCGLVSSILSILTLIYPWLRLKP",–,2
